Molecular target: CD20 on the surface of Raji cells (human (endogenous in Raji)) (UniProt P11836)
UniProt P11836, sequence (P11836 whole entry): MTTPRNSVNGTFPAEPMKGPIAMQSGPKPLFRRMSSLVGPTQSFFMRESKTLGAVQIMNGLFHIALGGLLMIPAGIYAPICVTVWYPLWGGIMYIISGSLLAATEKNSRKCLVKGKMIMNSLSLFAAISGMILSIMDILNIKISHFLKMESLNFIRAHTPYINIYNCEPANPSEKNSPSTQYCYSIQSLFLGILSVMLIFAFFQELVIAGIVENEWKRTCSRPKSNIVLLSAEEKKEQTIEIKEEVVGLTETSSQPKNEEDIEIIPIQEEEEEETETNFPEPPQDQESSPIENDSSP

Substance: rituximab (antibody)
- EC50 of complement-dependent cytotoxicity on Raji cells (LDH release, guinea-pig complement): 0.88 nM

— article PMC9103234
